Experiments:
Assay in all cases: pull-down; GST pull-down with purified GST or GST-p37 as bait, p97 variants and SPI or SPI variant, in the presence of ATP; Western blot
Conditions in all cases: both partners purified
His-tagged p97 G54K = target: T1, His-tagged p97 G54K (human, UniProt P55072 2-806, G54K)
T1 construct: p97 (VCP), human, point mutation in the N-domain groove; source: generated in bacteria, purified

His-tagged p97 Y143A = target: T2, His-tagged p97 Y143A (human, UniProt P55072 2-806, Y143A)
T2 construct: p97 (VCP), human, point mutation in the N-domain groove; source: generated in bacteria, purified
T2 sequence (P55072 2-806 Y143A): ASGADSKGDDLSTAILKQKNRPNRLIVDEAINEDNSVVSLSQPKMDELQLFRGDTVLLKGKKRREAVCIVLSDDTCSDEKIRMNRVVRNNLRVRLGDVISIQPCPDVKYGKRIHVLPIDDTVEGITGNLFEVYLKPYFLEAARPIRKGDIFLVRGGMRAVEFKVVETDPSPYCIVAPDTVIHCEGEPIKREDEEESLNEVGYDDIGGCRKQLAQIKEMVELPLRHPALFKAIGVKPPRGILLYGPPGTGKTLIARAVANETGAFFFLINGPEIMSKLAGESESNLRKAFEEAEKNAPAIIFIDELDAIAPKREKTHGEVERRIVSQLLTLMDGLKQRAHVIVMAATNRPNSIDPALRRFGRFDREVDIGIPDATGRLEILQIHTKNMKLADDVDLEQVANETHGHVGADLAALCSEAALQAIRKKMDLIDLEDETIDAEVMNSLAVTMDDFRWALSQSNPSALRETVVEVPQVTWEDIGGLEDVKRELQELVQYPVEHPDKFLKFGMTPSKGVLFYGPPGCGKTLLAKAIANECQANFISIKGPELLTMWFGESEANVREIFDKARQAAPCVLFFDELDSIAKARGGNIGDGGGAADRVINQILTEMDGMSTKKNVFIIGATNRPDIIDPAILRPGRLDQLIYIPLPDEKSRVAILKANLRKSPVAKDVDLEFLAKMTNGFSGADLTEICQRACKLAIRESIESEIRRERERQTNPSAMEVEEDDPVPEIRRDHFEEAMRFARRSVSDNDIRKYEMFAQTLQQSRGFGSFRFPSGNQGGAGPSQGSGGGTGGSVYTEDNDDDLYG

[1] = target: T3, His-tagged p97 (from bacteria), wild type (human, UniProt P55072 2-806)
T3 construct: p97 (VCP), human; Wild-type p97 of the GST pull-down assays; also called VCP; source: generated in bacteria, purified
T3 sequence (P55072 2-806): as the sequence (P55072 2-806 Y143A) above, with A142Y counted along it

T1 sequence (P55072 2-806 G54K): as the sequence (P55072 2-806 Y143A) above, with G53K, A142Y counted along it

binding result (His-tagged p97 G54K): binds
binding result (His-tagged p97 Y143A): binds
binding result [1]: binds
B1: GST-p37 (natural protein, human, UniProt Q14CS0 1-331, looked up)
chain: MAEGGGPEPGEQERRSSGPRPPSARDLQLALAELYEDEVKCKSSKSNRPKATVFKSPRTPPQRFYSSEHEYSGLNIVRPSTGKIVNELFKEAREHGAVPLNEATRASGDDKSKSFTGGGYRLGSSFCKRSEYIYGENQLQDVQILLKLWSNGFSLDDGELRPYNEPTNAQFLESVKRGEIPLELQRLVHGGQVNLDMEDHQDQEYIKPRLRFKAFSGEGQKLGSLTPEIVSTPSSPEEEDKSILNAVVLIDDSVPTTKIQIRLADGSRLIQRFNSTHRILDVRNFIVQSRPEFAALDFILVTSFPNKELTDESLTLLEADILNTVLLQQLK
notes: Bait of the GST pull-down assays; source: generated in bacteria, purified
